From FireProtDB (doi:10.1002/pro.100)

B1: Prolactin, P01236 (parent)
chain: MNIKGSPWKGSLLLLLVSNLLLCQSVAPLPICPGGAARCQVTLRDLFDRAVVLSHYIHNLSSEMFSEFDKRYTHGRGFITKAINSCHTSSLATPEDKEQAQQMNQKDFLSLIVSILRSWNEPLYHLVTEVRGMQEAPEAILSKAVEIEEQTKRLLEGMELIVSQVHPETKENEIYPVWSGLPSLQMADEESRLSAYYNLLHCLRRDSHKIDNYLKLLKCRIIHNNNC

Variants of: B1
Settings: Homo sapiens, 25 °C, Urea, Fluorescence, Potassium phosphate 25 mM, NaCl 25 mM, reversible: Yes, structure 2Q98, whole UniProt chain shown

In the case of H208A, the “ddG of mutation (higher = less stable)” value (pH 5.8) is reported as -1.39 kcal/mol, the denaturant m value (pH 5.8) is reported as 0.96 kcal/mol/M and the “denaturant midpoint (higher = more stable)” value (from here on “denaturant midpoint”) (pH 5.8) is reported as 5.94 M. For the same variant, the unfolding free energy (pH 5.8) was 5.69 kcal/mol, the “ddG of mutation (higher = less stable)” value (pH 7.8) was 0.04 kcal/mol and the denaturant m value (pH 7.8) was 1.28 kcal/mol/M. For the same variant, the “denaturant midpoint” value (pH 7.8) was 6.36 M and the unfolding free energy (pH 7.8) was 8.16 kcal/mol.

With H223A the “ddG of mutation (higher = less stable)” value (pH 5.8) was 0.03 kcal/mol, the denaturant m value (pH 5.8) was 0.81 kcal/mol/M and the “denaturant midpoint” value (pH 5.8) was 5.29 M. For the same variant, the unfolding free energy (pH 5.8) was 4.27 kcal/mol, the “ddG of mutation (higher = less stable)” value (pH 7.8) was -0.12 kcal/mol and the denaturant m value (pH 7.8) was 1.42 kcal/mol/M. For the same variant, the “denaturant midpoint” value (pH 7.8) was 5.85 M and the unfolding free energy (pH 7.8) was 8.32 kcal/mol.

With H55A H58A the “ddG of mutation (higher = less stable)” value (pH 7.8) was -1.42 kcal/mol, the denaturant m value (pH 7.8) was 1.39 kcal/mol/M and the “denaturant midpoint” value (pH 7.8) was 6.94 M. The unfolding free energy (pH 7.8) was 9.62 kcal/mol.
